Source: publication PMC9062740

Molecular target: taxol-stabilized microtubules polymerized from porcine brain tubulin (UniProt P02550)
Assay: MT-binding assay (cosedimentation)
Details: 5 μM CG2 mutant, […] taxol–MTs; parent: est. 1.0; read off a plot

taxol-stabilized microtubules polymerized from porcine brain tubulin, sequence (P02550 whole entry, chain 1 of 2): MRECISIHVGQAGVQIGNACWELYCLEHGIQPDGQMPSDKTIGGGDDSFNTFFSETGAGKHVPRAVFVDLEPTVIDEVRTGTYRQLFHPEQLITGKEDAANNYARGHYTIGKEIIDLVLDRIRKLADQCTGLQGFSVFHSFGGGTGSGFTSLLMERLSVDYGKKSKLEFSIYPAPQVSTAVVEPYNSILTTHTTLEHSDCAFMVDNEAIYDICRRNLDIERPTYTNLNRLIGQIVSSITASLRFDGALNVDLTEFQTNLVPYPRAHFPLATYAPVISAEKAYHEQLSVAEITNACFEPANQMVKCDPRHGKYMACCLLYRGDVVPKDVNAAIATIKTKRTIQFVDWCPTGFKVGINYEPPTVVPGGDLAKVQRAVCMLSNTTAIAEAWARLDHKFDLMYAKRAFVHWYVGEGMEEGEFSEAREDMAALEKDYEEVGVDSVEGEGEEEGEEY
taxol-stabilized microtubules polymerized from porcine brain tubulin, sequence (chain, as listed by the source, chain 2 of 2): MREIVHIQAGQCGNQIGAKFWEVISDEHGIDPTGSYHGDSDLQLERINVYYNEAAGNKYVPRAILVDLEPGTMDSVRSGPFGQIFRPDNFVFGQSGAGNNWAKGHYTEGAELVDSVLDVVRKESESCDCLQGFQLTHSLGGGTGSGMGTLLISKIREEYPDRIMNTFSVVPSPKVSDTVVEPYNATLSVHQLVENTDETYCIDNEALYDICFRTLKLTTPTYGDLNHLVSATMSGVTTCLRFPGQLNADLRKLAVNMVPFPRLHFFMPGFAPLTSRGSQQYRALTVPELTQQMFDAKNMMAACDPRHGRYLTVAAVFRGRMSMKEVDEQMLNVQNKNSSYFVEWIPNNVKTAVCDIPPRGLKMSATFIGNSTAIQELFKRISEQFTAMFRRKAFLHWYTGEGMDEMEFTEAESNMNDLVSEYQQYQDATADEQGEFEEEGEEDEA
CLIP-170 CG2 fragment (206-288), P30622 H276A, sequence (P30622 206-288 H276A): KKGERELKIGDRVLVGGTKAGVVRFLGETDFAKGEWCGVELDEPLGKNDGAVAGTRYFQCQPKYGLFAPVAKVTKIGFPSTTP

CLIP-170 CG2 fragment (206-288), P30622 H276A
ratio to parent: 0.91
